Data from patent US20220056141A1 (DEUTSCHES KREBSFORSCHUNGSZENTRUM STIFTUNG DES OFFENTLICHEN …, published 2022).

B1: bispecific FLT3xCD3 IgGsc antibody V6-V9 (bispecific antibody)
heavy: QVQLQQPGAELVKPGASLKLSCKSSGYTFTSYWMHWVRQRPGHGLEWIGEIDPSDSYKDYNQKFKDKATLTVDRSSNTAYMHLSSLTSDDSAVYYCARAITTTPFDFWGQGTTLTVSSASTKGPSVFPLAPSSKSTSGGTAALGCLVKDYFPEPVTVSWNSGALTSGVHTFPAVLQSSGLYSLSSVVTVPSSSLGTQTYICNVNHKPSNTKVDKKVEPKSCDKTHTCPPCPAPPVAGPSVFLFPPKPKDTLMISRTPEVTCVVVGVSHEDPEVKFNWYVDGVEVHNAKTKPREEQYNSTYRVVSVLTVLHQDWLNGKEYKCKVSNKQLPSPIEKTISKAKGQPREPQVYTLPPSRDELTKNQVSLTCLVKGFYPSDIAVEWESNGQPENNYKTTPPVLDSDGSFFLYSKLTVDKSRWQQGNVFSCSVMHEALHNHYTQKSLSLSPGKSGEVQLVESGGGLVQPGGSLRLSCAASGYSFTGYTMNWVRQAPGKGLEWVALINPYKGVSTYNQKFKDRFTISVDKSKNTAYLQMNSLRAEDTAVYYCARSGYYGDSDWYFDVWGQGTLVTVSSGGGGSGGGGSGGGGSDIQMTQSPSSLSASVGDRVTITCRASQDIRNYLNWYQQKPGKAPKLLIYYTSRLESGVPSRFSGSGSGTDYTLTISSLQPEDFATYYCQQGNTLPWTFGQGTKVEIK
light: DIVLTQSPATLSVTPGDSVSLSCRASQSISNNLHWYQQKSHESPRLLIKYASQSISGIPSRFSGSGSGTDFTLSINSVETEDFGVYFCQQSNTWPYTFGGGTKLEIKRTVAAPSVFIFPPSDEQLKSGTASVVCLLNNFYPREAKVQWKVDNALQSGNSQESVTEQDSKDSTYSLSSTLTLSKADYEKHKVYACEVTHQGLSSPVTKSFNRGEC
notes: Fc-attenuated IgGsc format; also called CC-2 V9
B2: mouse FLT3 (4G8) x CD3 (humanized UCHT1) bispecific IgGsc antibody V6-V6 (bispecific antibody)
heavy: QVQLQQPGAELVKPGASLKLSCKSSGYTFTSYWMHWVRQRPGHGLEWIGEIDPSDSYKDYNQKFKDKATLTVDRSSNTAYMHLSSLTSDDSAVYYCARAITTTPFDFWGQGTTLTVSSASTKGPSVFPLAPSSKSTSGGTAALGCLVKDYFPEPVTVSWNSGALTSGVHTFPAVLQSSGLYSLSSVVTVPSSSLGTQTYICNVNHKPSNTKVDKKVEPKSCDKTHTCPPCPAPPVAGPSVFLFPPKPKDTLMISRTPEVTCVVVGVSHEDPEVKFNWYVDGVEVHNAKTKPREEQYNSTYRVVSVLTVLHQDWLNGKEYKCKVSNKQLPSPIEKTISKAKGQPREPQVYTLPPSRDELTKNQVSLTCLVKGFYPSDIAVEWESNGQPENNYKTTPPVLDSDGSFFLYSKLTVDKSRWQQGNVFSCSVMHEALHNHYTQKSLSLSPGKSGDIQMTQSPSSLSASVGDRVTITCRASQDIRNYLNWYQQKPGKAPKLLIYYTSRLESGVPSRFSGSGSGTDYTLTISSLQPEDFATYYCQQGNTLPWTFGQGTKVEIKGGGGSGGGGSGGGGSEVQLVESGGGLVQPGGSLRLSCAASGYSFTGYTMNWVRQAPGKGLEWVALINPYKGVSTYNQKFKDRFTISVDKSKNTAYLQMNSLRAEDTAVYYCARSGYYGDSDWYFDVWGQGTLVTVSS
light: B1 light
notes: also called CC-2; parental 4G8 x UCHT1
B3: bispecific FLT3xCD3 IgGsc antibody V3-V6 (CC-2 variant 3) (bispecific antibody)
heavy: QVQLVQSGAEVKKPGASVKVSCKASGYTFTSYWMHWVRQAPGQGLEWIGEIDPSDSYKDYNQKFKDRVTMTRDTSTSTVYMELSSLRSEDTAVYYCARAITTTPFDFWGQGTTVTVSSASTKGPSVFPLAPSSKSTSGGTAALGCLVKDYFPEPVTVSWNSGALTSGVHTFPAVLQSSGLYSLSSVVTVPSSSLGTQTYICNVNHKPSNTKVDKKVEPKSCDKTHTCPPCPAPPVAGPSVFLFPPKPKDTLMISRTPEVTCVVVGVSHEDPEVKFNWYVDGVEVHNAKTKPREEQYNSTYRVVSVLTVLHQDWLNGKEYKCKVSNKQLPSPIEKTISKAKGQPREPQVYTLPPSRDELTKNQVSLTCLVKGFYPSDIAVEWESNGQPENNYKTTPPVLDSDGSFFLYSKLTVDKSRWQQGNVFSCSVMHEALHNHYTQKSLSLSPGKSGDIQMTQSPSSLSASVGDRVTITCRASQDIRNYLNWYQQKPGKAPKLLIYYTSRLESGVPSRFSGSGSGTDYTLTISSLQPEDFATYYCQQGNTLPWTFGQGTKVEIKGGGGSGGGGSGGGGSEVQLVESGGGLVQPGGSLRLSCAASGYSFTGYTMNWVRQAPGKGLEWVALINPYKGVSTYNQKFKDRFTISVDKSKNTAYLQMNSLRAEDTAVYYCARSGYYGDSDWYFDVWGQGTLVTVSS
light: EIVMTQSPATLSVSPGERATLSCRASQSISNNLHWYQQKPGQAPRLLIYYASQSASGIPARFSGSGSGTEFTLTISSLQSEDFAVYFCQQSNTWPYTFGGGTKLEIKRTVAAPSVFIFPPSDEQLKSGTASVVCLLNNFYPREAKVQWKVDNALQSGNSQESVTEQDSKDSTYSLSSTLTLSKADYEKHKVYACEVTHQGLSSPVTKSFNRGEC
notes: Fc-attenuated IgGsc format; also called Version 3; CC-2 V3
B4: bispecific FLT3xCD3 IgGsc antibody V4-V6 (CC-2 variant 4) (bispecific antibody)
heavy: B3 heavy
light: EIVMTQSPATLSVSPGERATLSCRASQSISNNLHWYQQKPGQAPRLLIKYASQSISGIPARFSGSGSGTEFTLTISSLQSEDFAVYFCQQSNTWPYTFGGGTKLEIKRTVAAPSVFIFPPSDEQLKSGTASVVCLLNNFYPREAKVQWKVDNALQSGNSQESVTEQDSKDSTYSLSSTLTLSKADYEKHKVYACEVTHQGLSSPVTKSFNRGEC
notes: Fc-attenuated IgGsc format; also called Version 4; CC-2 V4
B5: bispecific FLT3xCD3 IgGsc antibody V5-V6 (CC-2 variant 5) (bispecific antibody)
heavy: QVQLVQSGAEVKKPGGSLRLSCAASGYTFTSYWMHWVRQAPGQGLEWIGEIDPSDSYKDYNQKFKDRVTISRDTSKNTLYLQLSSLRAEDTAVYYCARAITTTPFDFWGQGTLVTVSSASTKGPSVFPLAPSSKSTSGGTAALGCLVKDYFPEPVTVSWNSGALTSGVHTFPAVLQSSGLYSLSSVVTVPSSSLGTQTYICNVNHKPSNTKVDKKVEPKSCDKTHTCPPCPAPPVAGPSVFLFPPKPKDTLMISRTPEVTCVVVGVSHEDPEVKFNWYVDGVEVHNAKTKPREEQYNSTYRVVSVLTVLHQDWLNGKEYKCKVSNKQLPSPIEKTISKAKGQPREPQVYTLPPSRDELTKNQVSLTCLVKGFYPSDIAVEWESNGQPENNYKTTPPVLDSDGSFFLYSKLTVDKSRWQQGNVFSCSVMHEALHNHYTQKSLSLSPGKSGDIQMTQSPSSLSASVGDRVTITCRASQDIRNYLNWYQQKPGKAPKLLIYYTSRLESGVPSRFSGSGSGTDYTLTISSLQPEDFATYYCQQGNTLPWTFGQGTKVEIKGGGGSGGGGSGGGGSEVQLVESGGGLVQPGGSLRLSCAASGYSFTGYTMNWVRQAPGKGLEWVALINPYKGVSTYNQKFKDRFTISVDKSKNTAYLQMNSLRAEDTAVYYCARSGYYGDSDWYFDVWGQGTLVTVSS
light: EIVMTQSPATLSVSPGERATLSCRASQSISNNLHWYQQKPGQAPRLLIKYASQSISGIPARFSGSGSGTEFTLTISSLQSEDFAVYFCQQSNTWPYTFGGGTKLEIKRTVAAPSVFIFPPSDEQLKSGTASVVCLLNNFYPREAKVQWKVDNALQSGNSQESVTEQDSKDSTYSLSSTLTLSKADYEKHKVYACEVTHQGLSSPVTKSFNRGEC
notes: Fc-attenuated IgGsc format; also called Version 5; CC-2 V5

What was measured:
[1] = target: T1, CD3 on Jurkat cells (human, UniProt P07766 23-207); test: flow cytometry on Jurkat cells (CD3+), 30 min incubation, PE-conjugated goat anti-human Fc-gamma secondary antibody
T1 construct: whole, on cells; also called Jurkat (CD3+); human cluster of differentiation 3 (CD3) antigen
T1 sequence (P07766 23-207): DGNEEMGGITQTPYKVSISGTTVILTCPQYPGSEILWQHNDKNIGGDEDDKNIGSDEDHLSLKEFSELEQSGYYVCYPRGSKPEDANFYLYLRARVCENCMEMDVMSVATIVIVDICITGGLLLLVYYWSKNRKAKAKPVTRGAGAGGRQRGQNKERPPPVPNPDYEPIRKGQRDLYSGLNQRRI
Protocol: (§1) In addition, antibody binding affinity was also tested using binding of the antibody to its target(s) as expressed on cells. Analyzed is the binding of CC-2 variants to Nalm16 cells expressing FLT3 (FIG. 4) or Jurkat cells expressing CD3 (FIG. 6). Variants V1 to V9 (with V6 being V6-V6) were produced after transient transfection of CHO cells using the insert sequences listed above. The antibodies were purified by protein A affinity- and size exclusion-chromatography. […] To measure antibody binding to FLT3 and CD3 NALM16 (FLT3+) and Jurkat (CD3+) cells were incubated with the respective variants for 30 min, washed, stained with a goat anti human Fcγ-specific and PE-conjugated secondary antibody (Jackson Immuno Research), washed again and analyzed by flow cytometry (FACSCalibur, BD Biosciences).

[2] = target: T1, CD3 on Jurkat cells; test: flow cytometry (value under the bar; by the legend the EC50 of the binding to Jurkat cells of FIG. 6)
Protocol: as §1

[3] = target: T2, His tagged, recombinant FLT3 protein (Sino Biologicals) (human, UniProt P36888 27-541, limits assumed); test: SPR (Biacore X); antibody captured on protein A chip, His-tagged recombinant FLT3 in solution
T2 construct: Bought protein; also called soluble recombinant FLT3 protein; not shown: His tag
T2 sequence (looked up): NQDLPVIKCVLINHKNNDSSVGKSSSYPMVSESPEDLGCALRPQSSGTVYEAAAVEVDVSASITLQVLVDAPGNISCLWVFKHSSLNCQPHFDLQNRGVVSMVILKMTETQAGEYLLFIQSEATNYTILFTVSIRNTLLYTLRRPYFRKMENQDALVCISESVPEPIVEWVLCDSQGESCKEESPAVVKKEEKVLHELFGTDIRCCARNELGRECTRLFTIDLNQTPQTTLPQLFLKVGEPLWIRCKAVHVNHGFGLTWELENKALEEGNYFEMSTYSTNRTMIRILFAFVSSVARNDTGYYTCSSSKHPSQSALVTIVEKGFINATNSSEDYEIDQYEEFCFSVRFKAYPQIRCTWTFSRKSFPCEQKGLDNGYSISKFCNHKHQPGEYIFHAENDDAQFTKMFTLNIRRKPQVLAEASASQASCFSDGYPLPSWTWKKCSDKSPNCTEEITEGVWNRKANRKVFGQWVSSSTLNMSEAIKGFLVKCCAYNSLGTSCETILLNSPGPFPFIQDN
Protocol: FIG. 3 depicts binding of different CC-2 variants to soluble recombinant FLT3 protein. Respective antibody variants were immobilized to a Biacore chip coated with protein A and binding of His tagged, recombinant FLT3 protein (Sino Biologicals) was determined using a Biacore X instrument (GE Healthcare). Shown are the results of various mutated variants of the FLT3 antigen binding domain (V1 to V5).
In FIG. 3 the binding of different FLT3 binding domain variants V1 to V5 as indicated above was tested for their dissociation constant using a soluble recombinant FLT3 protein. Respective antibody variants were immobilized to a Biacore chip coated with protein A and binding of His tagged, recombinant FLT3 protein (Sino Biologicals) was determined using a Biacore X instrument (GE Healthcare).

[4] = target: T3, FLT3 on Nalm16 cells (human, UniProt P36888 27-993); test: flow cytometry (row 'EC50, FACS binding' under the bars; binding to NALM16 cells of FIG. 4)
T3 construct: whole, on cells; Endogenous FLT3 of the NALM16 leukemia cell line; also called NALM16 (FLT3+); NALM-16 cells expressing FLT3
T3 sequence (looked up): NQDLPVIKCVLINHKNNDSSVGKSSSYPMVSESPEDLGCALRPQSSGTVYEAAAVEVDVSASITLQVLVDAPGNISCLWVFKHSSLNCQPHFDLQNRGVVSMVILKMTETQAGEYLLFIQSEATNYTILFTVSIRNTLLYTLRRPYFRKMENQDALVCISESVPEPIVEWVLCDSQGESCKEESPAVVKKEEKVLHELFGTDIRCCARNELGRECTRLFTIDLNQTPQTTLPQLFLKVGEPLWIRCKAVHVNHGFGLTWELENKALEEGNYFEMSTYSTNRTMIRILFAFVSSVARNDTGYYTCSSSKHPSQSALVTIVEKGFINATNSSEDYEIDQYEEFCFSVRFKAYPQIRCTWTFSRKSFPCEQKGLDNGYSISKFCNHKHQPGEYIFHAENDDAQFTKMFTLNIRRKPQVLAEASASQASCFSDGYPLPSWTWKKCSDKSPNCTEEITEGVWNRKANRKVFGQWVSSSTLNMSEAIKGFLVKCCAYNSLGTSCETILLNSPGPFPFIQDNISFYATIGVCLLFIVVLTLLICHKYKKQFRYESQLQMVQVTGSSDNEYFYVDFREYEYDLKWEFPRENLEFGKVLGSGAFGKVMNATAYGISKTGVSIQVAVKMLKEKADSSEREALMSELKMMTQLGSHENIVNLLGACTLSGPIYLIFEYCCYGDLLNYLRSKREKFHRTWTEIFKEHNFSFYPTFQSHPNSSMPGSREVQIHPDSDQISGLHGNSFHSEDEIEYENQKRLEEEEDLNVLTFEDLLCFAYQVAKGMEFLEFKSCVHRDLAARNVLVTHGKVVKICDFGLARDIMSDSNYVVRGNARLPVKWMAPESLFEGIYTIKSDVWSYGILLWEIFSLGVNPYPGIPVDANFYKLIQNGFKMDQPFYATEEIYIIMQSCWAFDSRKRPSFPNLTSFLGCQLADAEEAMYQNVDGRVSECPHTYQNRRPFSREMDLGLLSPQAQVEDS
Protocol: as §1

[5] = target: T3, FLT3 on Nalm16 cells; test: flow cytometry on NALM16 cells (FLT3+), 30 min incubation, PE-conjugated goat anti-human Fc-gamma secondary antibody
Protocol: as §1

Binder | EC50 (read off the curve) [1] [nM] | EC50 [2] [nM] | Kd [3] [nM] | koff [3] [s⁻¹] | kon [3] [M⁻¹ s⁻¹] | EC50 [4] [nM] | EC50 (read off the curve) [5] [nM]
B1 | ~5 | 4.1 |  |  |  |  | 
B2 | ~10 | 10.8 |  |  |  |  | 
B3 |  |  | 87000 | 0.0233 | 276 | 8 | ~8
B4 |  |  | 480 | 0.00887 | 18800 | 5 | ~5
B5 |  |  | 160 | 0.00449 | 29600 | 1.3 | ~1
